We go through 1 molecule from publication PMC8251270 (2021).

The assay concerns the target recombinant receptor‐binding motif (RBM) of SARS‐CoV‐2 spike (S) protein, residue 437–508 (SARS-CoV-2, UniProt P0DTC2 437-508). Kind of assay: SPR.

Usually Kd stands for the constant that tells how readily two partners part at equilibrium.

B1: mAb8 (antibody, V domains shown)
VH: DVKLVESGGGLVKLGGSLKLSCAASGFTFSTDYMSWVRQSPEKRLELVAAINSNGGTTYYPDTVKGRFIISRDNAKNTLYLQMSSLRSEDTALYYCARQVKNGLDYWGQGTSVTVSS
VL: DIQMTQTTSSLSASLGDRVTISCRASQDISNYLNWYQQKPDGTVKLLIYKTSRLHSGVPSRFRGSGSGTDYSLTISNLEEEDVATYFCQQGNTLPPTFGGGTKLEIK
B1: the Kd was 57.4 nM.
